Measurements reported in the supplement of paper PMC11246515.
± gives the standard deviation of the averaged measurements.

Experiment: total protein half-life in vivo (active degradation + dilution); higher = more stable protein
[1] = E. coli NCM3722 delta-clpP delta-lon delta-hslV, growth: N-lim chemostat, doubling time 6 h
[2] = E. coli NCM3722 delta-clpP, growth: N-lim chemostat, doubling time 6 h
[3] = E. coli NCM3722 delta-hslV, growth: N-lim chemostat, doubling time 6 h
[4] = E. coli NCM3722 delta-lon, growth: N-lim chemostat, doubling time 6 h
[5] = E. coli NCM3722 delta-smpB, growth: N-lim chemostat, doubling time 6 h
[6] = wild type E. coli NCM3722, growth: C-lim chemostat, doubling time 3 h
[7] = wild type E. coli NCM3722, growth: C-lim chemostat, doubling time 6 h
[8] = wild type E. coli NCM3722, growth: C-lim chemostat, doubling time 12 h
[9] = wild type E. coli NCM3722, growth: N-lim chemostat, doubling time 6 h
[10] = wild type E. coli NCM3722, growth: P-lim chemostat, doubling time 6 h
[11] = wild type E. coli NCM3722, growth: P-lim chemostat, doubling time 12 h
[12] = wild type E. coli NCM3722, growth: N-lim chemostat, doubling time 12 h

Sequence | total protein half-life in vivo [1] [h] | total protein half-life in vivo [2] [h] | total protein half-life in vivo [3] [h] | total protein half-life in vivo [4] [h] | total protein half-life in vivo [5] [h] | total protein half-life in vivo [6] [h] | total protein half-life in vivo [7] [h] | total protein half-life in vivo [8] [h] | total protein half-life in vivo [9] [h] | total protein half-life in vivo [10] [h] | total protein half-life in vivo [11] [h] | total protein half-life in vivo [12] [h]
MSIVMQLQDVAESTRLGPLSGEVRAGEILHLVGPNGAGKSTLLARMAGMTSGKGSIQFAGQPLEAWSATKLALHRAYLSQQQTPPFATPVWHYLTLHQHDKTRTELLNDVAGALALDDKLGRSTNQLSGGEWQRVRLAAVVLQITPQANPAGQLLLLDEPMNSLDVAQQSALDKILSALCQQGLAIVMSSHDLNHTLRHAHRAWLLKGGKMLASGRREEVLTPPNLAQAYGMNFRRLDIEGHRMLISTI | 4.65 ± 0.84 | 2.32 ± 0.27 | 3.72 | 2.59 | 2.37 ± 0.03 | 2.13 ± 0.1 | 3.49 ± 0.41 | 4.65 | 3.11 ± 0.33 | 4.37 | 6.509 ± 0.027 | –
MEDLNVVDSINGAGSWLVANQALLLSYAVNIVAALAIIIVGLIIARMISNAVNRLMISRKIDATVADFLSALVRYGIIAFTLIAALGRVGVQTASVIAVLGAAGLAVGLALQGSLSNLAAGVLLVMFRPFRAGEYVDLGGVAGTVLSVQIFSTTMRTADGKIIVIPNGKIIAGNIINFSREPVRRNEFIIGVAYDSDIDQVKQILTNIIQSEDRILKDREMTVRLNELGASSINFVVRVWSNSGDLQNVYWDVLERIKREFDAAGISFPYPQMDVNFKRVKEDKAA [P0C0S1] | 6.89 ± 0.37 | 7.53 ± 0.59 | – | 6.91 ± 1.2 | 5.91 ± 0.16 | – | 6.24 ± 0.12 | 12.81 ± 0.023 | – | 6.423 ± 0.022 | 13.2 ± 0.67 | 12.7 ± 0.82
MKHGIKALLITLSLACAGMSHSALAAASVAKPTAVETKAEAPAAQSKAAVPAKASDEEGTRVSINNASAEELARAMNGVGLKKAQAIVSYREEYGPFKTVEDLKQVPGMGNSLVERNLAVLTL [P0AAR8] | – | – | – | – | – | – | – | 3.36 | – | – | – | –
MNNPAMTIKGEQAKKQLIAAALAQFGEYGMNATTREIAAQAGQNIAAITYYFGSKEDLYLACAQWIADFIGEQFRPHAEEAERLFAQPQPDRAAIRELILRACRNMIKLLTQDDTVNLSKFISREQLSPTAAYHLVHEQVISPLHSHLTRLIAAWTGCDANDTRMILHTHALIGEILAFRLGKETILLRTGWTAFDEEKTELINQTVTCHIDLILQGLSQRSL [P0ACU0] | 5.84 ± 0.3 | 5.34 ± 0.68 | 4.74 ± 0.24 | – | 4.47 ± 0.15 | 2.49 ± 0.42 | 5.25 ± 0.066 | – | 4.76 ± 0.33 | 4.47 ± 0.36 | 10.4 ± 0.78 | 7.67 ± 0.31
MKQSHFFAHLSRLKLINRWPLMRNVRTENVSEHSLQVAMVAHALAAIKNRKFGGNVNAERIALLAMYHDASEVLTGDLPTPVKYFNSQIAQEYKAIEKIAQQKLVDMVPEELRDIFAPLIDEHAYSDEEKSLVKQADALCAYLKCLEELAAGNNEFLLAKTRLEATLEARRSQEMDYFMEIFVPSFHLSLDEISQDSPL | 4.544 ± 0.041 | 4.34 ± 0.065 | 4.17 ± 0.19 | 5.57 ± 1.7 | 4.07 ± 0.4 | 2.94 ± 0.21 | 5.64 ± 0.19 | – | 4.16 ± 0.45 | 4.86 ± 0.56 | 9.76 ± 0.83 | 7.12 ± 0.38
MKRKLFWICAVAMGMSAFPSFMTQATPATQPLINAEPAVAAQTEQNPQVGQVMPGVQGADAPVVAQNGPSRDVKLTFAQIAPPPGSMVLRGINPNGSIEFGMRSDEVVTKAMLNLEYTPSPSLLPVQSQLKVYLNDELMGVLPVTKEQLGKKTLAQMPINPLFISDFNRVRLEFVGHYQDVCEKPASTTLWLDVGRSSGLDLTYQTLNVKNDLSHFPVPFFDPSDNRTNTLPMVFAGAPDVGLQQASAIVASWFGSRSGWRGQNFPVLYNQLPDRNAIVFATNDKRPDFLRDHPAVKAPVIEMINHPQNPYVKLLVVFGRDDKDLLQAAKGIAQGNILFRGESVVVNEVKPLLPRKPYDAPNWVRTDRPVTFGELKTYEEQLQSSGLEPAAINVSLNLPPDLYLMRSTGIDMDINYRYTMPPVKDSSRMDISLNNQFLQSFNLSSKQEANRLLLRIPVLQGLLDGKTDVSIPALKLGATNQLRFDFEYMNPMPGGSVDNCITFQPVQNHVVIGDDSTIDFSKYYHFIPMPDLRAFANAGFPFSRMADLSQTITVMPKAPNEAQMETLLNTVGFIGAQTGFPAINLTVTDDGSTIQGKDADIMIIGGIPDKLKDDKQIDLLVQATESWVKTPMRQTPFPGIVPDESDRAAETRSTLTSSGAMAAVIGFQSPYNDQRSVIALLADSPRGYEMLNDAVNDSGKRATMFGSVAVIRESGINSLRVGDVYYVGHLPWFERVWYALANHPILLAVLAAISVILLAWVLWRLLRIISRRRLNPDNE | 6.42 ± 0.47 | 7.04 ± 0.67 | 6.15 ± 0.65 | 6.28 ± 0.15 | 5.904 ± 0.057 | 3.17 ± 0.033 | 6.1 ± 0.11 | 10.7 ± 1.2 | 5.8 ± 0.2 | 6.3 ± 0.39 | 11.8 ± 0.31 | 11.4 ± 0.44
MLTRLREIVEKVASAPRLNEALNILVTDICLAMDTEVCSVYLADHDRRCYYLMATRGLKKPRGRTVTLAFDEGIVGLVGRLAEPINLADAQKHPSFKYIPSVKEERFRAFLGVPIIQRRQLLGVLVVQQRELRQYDESEESFLVTLATQMAAILSQSQLTALFGQYRQTRIRALPAAPGVAIAEGWQDATLPLMEQVYQASTLDPALERERLTGALEEAANEFRRYSKRFAAGAQKETAAIFDLYSHLLSDTRLRRELFAEVDKGSVAEWAVKTVIEKFAEQFAALSDNYLKERAGDLRALGQRLLFHLDDANQGPNAWPERFILVADELSATTLAELPQDRLVGVVVRDGAANSHAAIMVRALGIPTVMGADIQPSVLHRRTLIVDGYRGELLVDPEPVLLQEYQRLISEEIELSRLAEDDVNLPAQLKSGERIKVMLNAGLSPEHEEKLGSRIDGIGLYRTEIPFMLQSGFPSEEEQVAQYQGMLQMFNDKPVTLRTLDVGADKQLPYMPISEENPCLGWRGIRITLDQPEIFLIQVRAMLRANAATGNLNILLPMVTSLDEVDEARRLIERAGREVEEMIGYEIPKPRIGIMLEVPSMVFMLPHLAKRVDFISVGTNDLTQYILAVDRNNTRVANIYDSLHPAMLRALAMIAREAEIHGIDLRLCGEMAGDPMCVAILIGLGYRHLSMNGRSVARAKYLLRRIDYAEAENLAQRSLEAQLATEVRHQVAAFMERRGMGGLIRGGL | 5.82 ± 0.99 | 5.146 ± 0.0092 | 4.39 ± 0.15 | 4.53 ± 0.17 | 4.44 ± 0.084 | 3.06 ± 0.15 | 5.78 ± 0.21 | 10.7 ± 0.17 | 4.37 ± 0.11 | 6.54 ± 0.36 | 11.5 ± 1.8 | 7.03 ± 0.12
